Measured values reported in patent publication US20240190956A1 (IMMUNOGEN, published 2024).
Values belong to the binder of their own block, whether it stands above or below them.

Key:
CD123 = CD123 (UniProt P26951 19-378, limits assumed); assay: cell-based or functional assay
[1] = molecular target: T1, folate receptor alpha (FR-α) (human, UniProt P15328 25-234); assay: FACS on T47D cells
T1 construct: whole, on cells; also called FOLR1; human folate receptor 1
Description: T47D cells were then resuspended in growth media (see above) to neutralize trypsin, and were counted on a Coulter counter. Cells were then washed twice in cold FACS buffer, centrifuging in between washes at 1200 rpm for 5 min.
About 100 μl/mL of 2×10⁴ cells/well were added to wells containing ADC, antibody or FACS buffer only, and incubated at 4° C. for 2 hr. After incubation, cells were centrifuged as before and washed once in 200 μL/well cold FACS buffer. Cells were then stained with 200 μL/well FITC-conjugated Goat Anti-Human-IgG-Fcγ secondary antibody (controls included were unstained cells and those stained with secondary antibody only) for 40 min at 4° C., centrifuged and washed once in 200 μL/well cold PBS-D. Cells were fixed in 200 μL/well 1% formaldehyde/PBS-D and stored at 4° C.
After storage, cellular surface staining of conjugate or antibody was detected using flow cytometry on a FACS Calibur (BD Biosciences). The geometric means were plotted against the log concentration of ADC or antibody using GraphPad Prism and the EC₅₀ was calculated via non-linear 4-parameter logistic regression analysis.

[2] = molecular target: T1, folate receptor alpha (FR-α); assay: cell-based or functional assay

Sequence of CD123 (P26951 19-378 limits assumed): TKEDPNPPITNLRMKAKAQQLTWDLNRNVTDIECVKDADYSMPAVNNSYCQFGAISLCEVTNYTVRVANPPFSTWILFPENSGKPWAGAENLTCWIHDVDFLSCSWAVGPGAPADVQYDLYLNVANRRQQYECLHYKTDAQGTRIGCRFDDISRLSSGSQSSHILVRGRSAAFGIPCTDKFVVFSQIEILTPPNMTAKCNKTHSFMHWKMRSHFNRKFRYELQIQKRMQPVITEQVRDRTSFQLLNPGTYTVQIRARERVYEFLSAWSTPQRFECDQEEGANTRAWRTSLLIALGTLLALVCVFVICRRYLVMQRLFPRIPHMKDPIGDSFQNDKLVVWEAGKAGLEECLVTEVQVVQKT
T1 sequence (P15328 25-234): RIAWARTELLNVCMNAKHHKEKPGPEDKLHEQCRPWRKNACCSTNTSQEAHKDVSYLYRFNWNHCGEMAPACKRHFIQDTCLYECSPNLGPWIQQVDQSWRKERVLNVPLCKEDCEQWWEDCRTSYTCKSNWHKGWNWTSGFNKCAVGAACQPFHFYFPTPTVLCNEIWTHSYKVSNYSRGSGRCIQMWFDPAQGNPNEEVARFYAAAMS

B1: huCD123-6Rv1.1S2-SeriMab-D8 (antibody, V domains shown)
VH: SFQLVQSGAEVVKPGASVKMSCKASGYTFTSSIMHWMKQKPGQGLEWIGYIKPYNDGTKYNQKFQGKATLTSDKSSSTANMELNSLTSEDSAVYYCAREGGNDYYDTMDYWGQGTSVTVSS
VL: DIQMTQSPSSMSASVGERVTITCRASQDINSYLSWFQQKPGKSPKTLIYRVNRLVDGVPSRFSGSGSGQDYSLTISSLEPEDMGIYYCLQYDAFPYTFGQGTKLEIKR
IC50 of cytotoxicity on HNT-34 cells (WST-8) (CD123): ~2 pM
IC50 of cytotoxicity on MOLM-1 cells (WST-8) (CD123): ~30 pM
IC50 of cytotoxicity on SHI-1 cells (WST-8) (CD123): ~10 pM
loss of cytotoxicity when CD123 is blocked by unconjugated huCD123-6 antibody (CD123): 100 fold

B4: huMOV19-NTS #2-Linker1-Compound A (antibody)
heavy: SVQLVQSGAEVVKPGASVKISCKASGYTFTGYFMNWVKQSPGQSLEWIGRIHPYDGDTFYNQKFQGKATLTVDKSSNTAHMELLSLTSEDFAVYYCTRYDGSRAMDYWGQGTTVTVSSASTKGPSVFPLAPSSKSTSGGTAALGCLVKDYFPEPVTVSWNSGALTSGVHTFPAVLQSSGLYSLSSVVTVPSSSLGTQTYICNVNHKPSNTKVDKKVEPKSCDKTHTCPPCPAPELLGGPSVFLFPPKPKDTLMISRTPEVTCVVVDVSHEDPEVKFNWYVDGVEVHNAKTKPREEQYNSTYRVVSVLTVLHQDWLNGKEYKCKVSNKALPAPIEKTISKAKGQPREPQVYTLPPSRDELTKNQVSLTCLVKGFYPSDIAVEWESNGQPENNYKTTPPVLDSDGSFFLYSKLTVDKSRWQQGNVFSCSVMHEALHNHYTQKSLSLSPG
light: DIVLTQSPLSLAVSLGQPAIISCKASQSVSFAGTSLMHWYHQKPGQQPRLLIYRASNLEAGVPDRFSGSGSKTDFTLTISPVEAEDAATYYCQQSREYPYTFGGGTKLEIKRTVAAPSVFIFPPSDEQLKSGTASVVCLLNNFYPREAKVQWKVDNALQSGNSQESVTEQDSKDSTYSLSSTLTLSKADYEKHKVYACEVTHQGLSSPVTKSFNRGEC
modifications: N-terminal Ser oxidized to an aldehyde and linked through Linker1 to Compound A (sulfonated DGN462); two Compound A molecules per antibody
cytotoxicity on KB cells (WST-8), potency against the lysine-conjugated ADC, by Compound A concentration [2]: ~5 fold
cytotoxicity on KB cells (WST-8), potency against the lysine-conjugated ADC, by antibody concentration [2]: ~3 fold

Next, values leading:

binding result [1]: binds
B2: huMOV19-NTS #2 (antibody)
heavy: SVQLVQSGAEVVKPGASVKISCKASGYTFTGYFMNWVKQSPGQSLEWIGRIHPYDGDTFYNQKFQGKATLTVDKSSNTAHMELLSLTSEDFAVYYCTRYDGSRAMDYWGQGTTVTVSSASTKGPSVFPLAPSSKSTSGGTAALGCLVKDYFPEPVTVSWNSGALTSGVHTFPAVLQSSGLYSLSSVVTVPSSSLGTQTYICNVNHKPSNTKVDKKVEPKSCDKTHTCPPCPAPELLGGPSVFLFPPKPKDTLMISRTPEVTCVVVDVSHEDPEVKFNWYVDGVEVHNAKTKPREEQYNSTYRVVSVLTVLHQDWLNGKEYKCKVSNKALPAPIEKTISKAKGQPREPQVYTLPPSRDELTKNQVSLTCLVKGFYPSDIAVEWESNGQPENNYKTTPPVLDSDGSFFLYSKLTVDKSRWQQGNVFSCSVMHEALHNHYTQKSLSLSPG
light: DIVLTQSPLSLAVSLGQPAIISCKASQSVSFAGTSLMHWYHQKPGQQPRLLIYRASNLEAGVPDRFSGSGSKTDFTLTISPVEAEDAATYYCQQSREYPYTFGGGTKLEIKRTVAAPSVFIFPPSDEQLKSGTASVVCLLNNFYPREAKVQWKVDNALQSGNSQESVTEQDSKDSTYSLSSTLTLSKADYEKHKVYACEVTHQGLSSPVTKSFNRGEC
notes: huMOV19 with the heavy chain N-terminal Gln replaced by Ser (huMov19 HC NTS2); also called SeriMab; huMOV19-SeriMab antibody

binding result [1]: binds
B3: huMOV19 (antibody, human IgG1, kappa)
heavy: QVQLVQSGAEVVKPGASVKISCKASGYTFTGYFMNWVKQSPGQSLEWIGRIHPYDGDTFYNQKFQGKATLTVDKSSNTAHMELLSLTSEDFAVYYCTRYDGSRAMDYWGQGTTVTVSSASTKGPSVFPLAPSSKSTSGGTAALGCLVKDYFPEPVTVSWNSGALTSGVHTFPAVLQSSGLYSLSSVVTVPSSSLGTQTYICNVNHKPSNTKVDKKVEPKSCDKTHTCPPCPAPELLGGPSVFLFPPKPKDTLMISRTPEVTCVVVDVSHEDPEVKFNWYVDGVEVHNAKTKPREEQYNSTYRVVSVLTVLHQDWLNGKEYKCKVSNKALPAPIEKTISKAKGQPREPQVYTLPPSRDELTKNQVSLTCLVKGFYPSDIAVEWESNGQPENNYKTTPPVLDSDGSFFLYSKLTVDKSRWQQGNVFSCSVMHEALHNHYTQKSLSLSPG
light: DIVLTQSPLSLAVSLGQPAIISCKASQSVSFAGTSLMHWYHQKPGQQPRLLIYRASNLEAGVPDRFSGSGSKTDFTLTISPVEAEDAATYYCQQSREYPYTFGGGTKLEIKRTVAAPSVFIFPPSDEQLKSGTASVVCLLNNFYPREAKVQWKVDNALQSGNSQESVTEQDSKDSTYSLSSTLTLSKADYEKHKVYACEVTHQGLSSPVTKSFNRGEC
notes: Humanized anti-folate receptor alpha IgG1/kappa; also called M9346A; unconjugated native huMOV19 antibody
